The text below walks through data of the supplement of paper PMC9112550, “Optimization of the antimicrobial peptide Bac7 by deep mutational scanning” (BMC Biology, 2022).
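Note: peptides expressed intracellularly from a pBAD plasmid library in pooled LB shake-flask culture, induced with 0.3% L-arabinose, DNA abundance read by NGS, three biological replicates, DESeq2 with apeglm shrinkage.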

For this data set, the system named is Escherichia coli TOP10. Put plainly: shrunken log2 fold change of peptide-encoding DNA abundance (4.5 h post-induction vs induction); higher = less antimicrobial activity (less host growth inhibition). Conditions: time post-induction: 4.5 h; library: site-saturation at positions 5, 18, 19, 20.
For the sequence RRIRERPPRLPRPRPRPKLCPRP, the “shrunken log2 fold change” value was found to be 0.000831.
The same measure for RRIRGRPPRLPRPRPRPLTPPRP: 1.43; for RRIRERPPRLPRPRPRPAECPRP: -0.0953.
Turning to RRIRNRPPRLPRPRPRPMAKPRP, the “shrunken log2 fold change” value amounted to 0.0197.
RRIRVRPPRLPRPRPRPMKQPRP: the “shrunken log2 fold change” value is -0.0165.
On to RRIRARPPRLPRPRPRPMCFPRP, for which the “shrunken log2 fold change” value worked out at 0.18.
In the case of RRIRTRPPRLPRPRPRPCETPRP, the “shrunken log2 fold change” value turned out to be 0.0184.
The value for RRIRFRPPRLPRPRPRPWNPPRP was -0.222; that for RRIRTRPPRLPRPRPRPPCIPRP was 0.00685.
The value for RRIRVRPPRLPRPRPRPMGHPRP was 0.0767; that for RRIRGRPPRLPRPRPRPIGWPRP was 1.18.
RRIRKRPPRLPRPRPRPIHYPRP: the “shrunken log2 fold change” value is -0.15.
The same measure for RRIRPRPPRLPRPRPRPYQPPRP: -0.125; for RRIRNRPPRLPRPRPRPFSMPRP: -0.00235.
The same measure for RRIRIRPPRLPRPRPRPATAPRP: 0.0897.
The value for RRIRYRPPRLPRPRPRPLKAPRP was 0.141; that for RRIRGRPPRLPRPRPRPYSWPRP was 0.187; that for RRIRDRPPRLPRPRPRPAMRPRP was 0.415.
Consider RRIRFRPPRLPRPRPRPAKFPRP, for which the “shrunken log2 fold change” value was -0.265.
Regarding RRIRCRPPRLPRPRPRPNRLPRP, the “shrunken log2 fold change” value was -0.00311.
RRIRHRPPRLPRPRPRPRMLPRP: the “shrunken log2 fold change” value was -0.192.
Take RRIRWRPPRLPRPRPRPWREPRP: the “shrunken log2 fold change” value is -0.0969.
The same measure for RRIRDRPPRLPRPRPRPSDCPRP: -0.482.
The same measure for RRIRWRPPRLPRPRPRPFMGPRP: 0.0373; for RRIRIRPPRLPRPRPRPQKIPRP: -0.148.
The value for RRIRERPPRLPRPRPRPKYCPRP was -0.368; that for RRIRWRPPRLPRPRPRPLLLPRP was 0.152; that for RRIRFRPPRLPRPRPRPFCRPRP was -0.316.
For RRIRQRPPRLPRPRPRPGKAPRP, the “shrunken log2 fold change” value was 0.0185.
The value for RRIRRRPPRLPRPRPRPWIRPRP was -0.298; that for RRIRERPPRLPRPRPRPPQVPRP was 0.207; that for RRIRFRPPRLPRPRPRPRRSPRP was 0.0713.
On to RRIRGRPPRLPRPRPRPGHEPRP, for which the “shrunken log2 fold change” value worked out at 0.202.
The value for RRIRFRPPRLPRPRPRPGHAPRP was 0.192; that for RRIRCRPPRLPRPRPRPEPAPRP was 0.971; that for RRIRWRPPRLPRPRPRPHPMPRP was 0.408.
The same measure for RRIRQRPPRLPRPRPRPYGFPRP: 0.0147.
For RRIRVRPPRLPRPRPRPAHDPRP, the “shrunken log2 fold change” value was found to be 0.113.
The value for RRIRLRPPRLPRPRPRPHTDPRP was -0.223; that for RRIRERPPRLPRPRPRPRKVPRP was 0.107.
The value for RRIRPRPPRLPRPRPRPRQHPRP was 0.182; that for RRIRNRPPRLPRPRPRPWLQPRP was -0.0113; that for RRIRTRPPRLPRPRPRPEGIPRP was 0.0215.
The same measure for RRIRHRPPRLPRPRPRPVVSPRP: -0.137; for RRIRARPPRLPRPRPRPLSDPRP: 0.248; for RRIRDRPPRLPRPRPRPQNDPRP: -0.215.
On to RRIRERPPRLPRPRPRPGPSPRP, for which the “shrunken log2 fold change” value was -0.109.
The value for RRIRGRPPRLPRPRPRPGDNPRP was 0.0889; that for RRIRARPPRLPRPRPRPAEMPRP was -0.0298.
The value for RRIRTRPPRLPRPRPRPKVFPRP was -0.0334; that for RRIRMRPPRLPRPRPRPSVIPRP was -0.244; that for RRIRSRPPRLPRPRPRPLKNPRP was -0.347.
The value for RRIRCRPPRLPRPRPRPWCGPRP was -0.288; that for RRIRFRPPRLPRPRPRPEDIPRP was 0.0107; that for RRIRPRPPRLPRPRPRPNAVPRP was 0.0397.
Take RRIRYRPPRLPRPRPRPFYAPRP: the “shrunken log2 fold change” value is -0.642.
The same measure for RRIRIRPPRLPRPRPRPHMWPRP: -0.321; for RRIRLRPPRLPRPRPRPERPPRP: 0.157.
The same measure for RRIRRRPPRLPRPRPRPLGNPRP: -0.0268; for RRIRQRPPRLPRPRPRPTPTPRP: 0.336; for RRIRFRPPRLPRPRPRPITIPRP: -0.195.
The value for RRIRKRPPRLPRPRPRPMHPPRP was 0.19; that for RRIRDRPPRLPRPRPRPCFTPRP was 0.0373.
RRIRERPPRLPRPRPRPGILPRP: the “shrunken log2 fold change” value is -0.304.
The value for RRIRHRPPRLPRPRPRPNPIPRP was -0.023; that for RRIRFRPPRLPRPRPRPFPDPRP was -0.137; that for RRIRMRPPRLPRPRPRPPNKPRP was 0.604.
Consider RRIRFRPPRLPRPRPRPTTGPRP, for which the “shrunken log2 fold change” value is -0.0819.
The value for RRIRCRPPRLPRPRPRPIPRPRP was 0.73.
The same measure for RRIRFRPPRLPRPRPRPFDYPRP: -0.111; for RRIRSRPPRLPRPRPRPSERPRP: 0.245; for RRIRLRPPRLPRPRPRPISHPRP: -0.137.
The value for RRIRMRPPRLPRPRPRPNREPRP was 0.0182; that for RRIRLRPPRLPRPRPRPVMCPRP was 0.142.
With RRIRERPPRLPRPRPRPRRFPRP, the “shrunken log2 fold change” value stood at 0.158.
For RRIRARPPRLPRPRPRPQNNPRP, the “shrunken log2 fold change” value is -0.29.
The same measure for RRIRERPPRLPRPRPRPQSQPRP: 0.0662.
The same measure for RRIRSRPPRLPRPRPRPLYLPRP: -0.212.
The same measure for RRIRVRPPRLPRPRPRPLPDPRP: -0.0431.
RRIRKRPPRLPRPRPRPYKSPRP: the “shrunken log2 fold change” value is -0.243.
The same measure for RRIRSRPPRLPRPRPRPIIYPRP: -0.182; for RRIRWRPPRLPRPRPRPFCCPRP: -0.163.
The same measure for RRIRNRPPRLPRPRPRPGCWPRP: 0.55.
The same measure for RRIRYRPPRLPRPRPRPNRLPRP: -0.0455; for RRIRDRPPRLPRPRPRPSHPPRP: -0.425.
On to RRIRSRPPRLPRPRPRPIMQPRP, for which the “shrunken log2 fold change” value was -0.216.
The same measure for RRIRYRPPRLPRPRPRPRIPPRP: -0.353; for RRIRHRPPRLPRPRPRPFFRPRP: -0.0964.
Consider RRIRARPPRLPRPRPRPFMWPRP, for which the “shrunken log2 fold change” value came out at 0.065.
As to RRIRFRPPRLPRPRPRPLSMPRP, the “shrunken log2 fold change” value is -0.363.
Take RRIRPRPPRLPRPRPRPHRSPRP: the “shrunken log2 fold change” value came to 0.0256.
The same measure for RRIRIRPPRLPRPRPRPRLIPRP: -0.199; for RRIRWRPPRLPRPRPRPVAFPRP: 0.313; for RRIRQRPPRLPRPRPRPGLMPRP: -0.0533.
For RRIRGRPPRLPRPRPRPGAQPRP, the “shrunken log2 fold change” value was 1.19.
On to RRIRRRPPRLPRPRPRPDAGPRP, for which the “shrunken log2 fold change” value was found to be 0.307.
As to RRIRMRPPRLPRPRPRPIFRPRP, the “shrunken log2 fold change” value is 0.185.
The value for RRIRDRPPRLPRPRPRPKVTPRP was -0.0277; that for RRIRARPPRLPRPRPRPLYDPRP was -0.124; that for RRIRVRPPRLPRPRPRPFANPRP was -0.0887.
The value for RRIRCRPPRLPRPRPRPFAGPRP was -0.175; that for RRIRNRPPRLPRPRPRPTLEPRP was 0.041.
